The values that follow come from US20220396615A1 (NANJING GENSCRIPT BIOTECH, published 2022).

The target of experiment [1] is T1, Tag-free human IL6 recombinant protein (GenScript, Cat. No. Z03034) (human, UniProt P05231 30-212).
T1 construct: Bought recombinant protein; The catalogue number is printed only for the immunogen, and the assays say only 'recombinant IL6 protein' or 'IL6'; also called recombinant IL6 protein; Interleukin 6
In words: indirect ELISA, IL6 coated at 0.5 µg/ml, antibody titrated. Here is the method:
The purified antibodies were evaluated for the binding ability to IL6 by indirect ELISA. The ELISA plate (Nunc) was coated with 0.5 μg/ml recombinant IL6 protein in PBS at 100 μl/well at 4° C. overnight. The plate was washed with PBS-T (0.05% Tween) and was blocked with PBST containing 1% BSA at 200 μl/well at 37° C. for 0.5 h. The blocking solution was then discarded. 100 μl 10 μg/ml purified antibody was added to the first well, and 3-fold gradient dilution was performed for 11 test concentration gradients in total. Incubation was then performed at room temperature for 1 h. The plate was washed with PBST for three times and incubated with horseradish peroxidase-conjugated goat anti-mouse/rat IgG (Fab-specific) (GenScript) at 100 μl/well at 37° C. for 0.5 h. The plate was washed with PBST for five times, and TMB chromogenic solution (GenScript) was then added and incubation was performed in dark for 15 min at room temperature. The reaction was stopped by adding 50 μl 1M HCl stop solution (Sigma). The plate was read at 450 nm by a microplate reader. The binding ability of the clones 8H10B7E6, 23A9H3, 29D6B5, 41A10B8, 49F10H6, 53A2F9 (rat), and 61G1D8 (rat) for recombinant protein IL6 was shown in FIG. 3.
On the technique in general: ELISA stands for enzyme-linked immunosorbent assay.

In experiment [2] the target is T1, Tag-free human IL6 recombinant protein …. Kind of experiment: cell-based or functional assay.

Residue numbers refer to the chain shown, from its start.

B1: 23A9H3 (antibody, V domains shown)
VH: QVQLQQSGAELAKPGASVKMSCKTSGYTFTNYWMHWVKQRPGQGLEWIGYVIPSTGYTDYNQSFKDKATLTADKSSNTAYMQVNSLTSEDSAVYYCASLLPGFAYWGQGTLVTVSA
VL: DVVMTQTPLSLPVSLGDQASISCRSSQSLVDSNGNTYLHWYLQKPGQSPKLLIYKVSNRFSGVPDRFSGSGSGTDFTLKISRVEAEDLGVYFCSQSTHVPPTFGGGTKLEIK
notes: Mouse hybridoma clone; Made recombinantly in HEK293-6E cells as variable region + constant region and purified on protein A as IgG
A word on the EC50: it is the concentration needed to bring the measured effect to its halfway point. Turning to B1, in experiment [1], the EC50 is less than 0.025 µg/mL.

B2: 29D6B5 (antibody, V domains shown)
VH: QVQLQQSGAELAEPGASVKMSCKASGYNFNNYWMHWVKQGPGQGLEWIGYIDPRTASIYYNQKFKDKATLTADKSSSTAYMQLSSLTSEDSAVYYCARILYGKYDVWGAGTTVIVSS
VL: B1 VL with M4L, D17N, L51V, Y54H
notes: as for B1
For the molecule B2, the EC50 in experiment [1] is less than 0.025 µg/mL.

B3: 49F10H6 (antibody, V domains shown)
VH: QVQLQQPGAELVKPGASVKMSCKASGYTFTNYIIHWIKQTPGQGLEWIGAIYPGNGDTSYSQKFKDKATLTADRSSSTAYMQLSSLTSEDSAVYYCARGDAGYSAWFAYWGQGTLVTVSA
VL: NIVLTQSPASLAVSLGQRATISCSASESVDSYGNNFMHWYQQRPGQPPKLLIYLASKLESGVPARFSGSGSRTEFTLTIDPVEAEDAATYYCQQNNEDPLTFGAGTKLELK
notes: as for B1
With B3, the EC50 in experiment [1] is less than 0.025 µg/mL.

B4: 53A2F9 (rat) (antibody, V domains shown)
VH: QVQLKESGPGLVQPSQTLSLTCTVSGFSLTSHTVSWIRQPPGRGLEWMGKMWSNGDTDYDSAIRSRLSITRDTSKSQVFLKINSLQTEDTAMYFCARYYFSSYGGGYFDYWGQGVMVTVSS
VL: DTVLTQSPALAVSLGQRVTISCRASKSVSTYMHWYQQKSGQQPKLLIYSASNLESGVPSRFSGSGSGTDFTLTIDPVEADDIANYYCQQSDELPDTFGAGTKLELK
notes: Rat hybridoma clone; Made recombinantly in HEK293-6E cells as variable region + constant region and purified on protein A as IgG
In the case of B4, the “inhibitory IC50, IL6-dependent TF-1 cell proliferation” value in experiment [2] was found to be 3.95 µg/mL. Moreover, the EC50 in experiment [1] turned out to be 0.04 nM.

B5: 61G1D8 (rat) (antibody, V domains shown)
VH: EVQLLESGGGLVQPGRSMKLSCAASGFTFSSFPMAWVRQTPSKALEWVATISPSGGTSYSRDSVKGRFTISRDNANSTLCLHMDSLKSEDTATYYCLRERIYNTYFDYWGQGVMVTVSS
VL: DIRMTHSPASLSASLGETVSIECLPSEDISSDLAWYQQKPGKSPQLLIYNANTLPNGVPSRFSGSRSGAQYFLKINSLQSEDVATYFCQQYDSYPYTFGTGTKLELK
notes: as for B4
For the molecule B5, in experiment [2], the “inhibitory IC50, IL6-dependent TF-1 cell proliferation” value was determined as 4.54 µg/mL. Besides, the EC50 in experiment [1] was less than 0.025 µg/mL.

B6: 41A10B8 (antibody, V domains shown)
VH: EVKLEESGGGLVQPGGSMKLSCAASGFTFSDAWMDWVRQSPDKGLEWVAEIRSKTYHPATYYTKSVRGRFTISRDDSKSSVYLQMNNLGAEDTGIYYCTRPRYYGGYFDYWGQGTTLTVSS
VL: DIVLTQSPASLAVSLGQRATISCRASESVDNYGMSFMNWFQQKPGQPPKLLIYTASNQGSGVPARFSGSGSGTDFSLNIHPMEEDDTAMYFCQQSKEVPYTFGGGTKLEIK
notes: as for B1
Turning to B6, in experiment [1], the EC50 was less than 0.025 µg/mL.
